According to paper PMC5421877, “SOCS3 inhibits the pathological effects of IL-22 in non-melanoma skin tumor-derived keratinocytes” (Oncotarget, 2017):

Assays:
Tyk2 phosphorylation = Tyk2 phosphorylation in healthy keratinocytes (IL-22); format: cell-based, human; conditions: IL-22 10 min, no peptide, n = 3
Description: 2nd- or 3rd-passage cultures of human keratinocyte strains (n = 5), obtained as previously described, were grown in serum-free Keratinocyte Growth Medium (KGM; Clonetics, Walkersville, MD, USA), for 3–5 days (at 60–80% confluence) before performing experiments. The HaCaT human keratinocyte cell line was a gift from N.E. Fusenig (Deutsches Krebsforschungszentrum, Heidelberg, Germany), and was grown in Dulbecco modified Eagle medium (DMEM; Biochrom, Cambridge, UK) supplemented with 10% Fetalclone II serum (HyClone Laboratories, South Logan, UT, USA). SCC-derived cell lines, CAL27-and CAL33 (American Tissue Culture Collection, ATCC, Milan, Italy), SCC12, SCC13 and SCC-15 (kindly provided by Dr. A. Marconi, University of Modena e Reggio Emilia, Italy), as well as M77015-08 and TE354.T (ATCC) were grown in DMEM (Biocrhom AG, Cambridge, UK) with 10% fetal bovine serum (HyClone Laboratories). Primary cultures of healthy keratinocytes and skin tumor cell lines were treated with peptides (KIR, KIR-ESS, Ctrl1 and Ctrl2) resuspended in 1X PBS for 1 h and, then, stimulated with 50 ng/ml IL-22 or 200 U/ml IFN-γ (R&D Systems, Minneapolis, MN, USA) in keratinocyte basal medium (KBM, Clonetics) or DMEM, respectively.
Total protein extracts were prepared as previously reported. Immunoprecipitation and immunoblotting were performed accordingly to standard procedures. […]

[1] = system: STAT3 phosphorylation in BCC and SCC lines; experiment: phospho-STAT3 levels in transformed keratinocyte lines (IL-22); format: cell-based; conditions: BCC (n = 2) and SCC (n = 5) lines vs healthy strains (n = 5), IL-22 time course
Description: Figure 4 SOCS3 and SOCS1 are poorly expressed in the epidermis of NMSC lesions and are not induced in transformed keratinocytes by IL-22 (A) Immunohistochemistry for SOCS3 and SOCS1 (red staining) was performed respectively on frozen or paraffin-embedded sections from biopsies of healthy skin (i), NLS (ii, iii) and LS (iv, v) areas of BCC and SCC, specimens. Psoriatic skin biopsies were also analyzed (vi). Sections were counterstained with Mayer's H&E and were visually evaluated by an pathologist experienced in dermatology. One out of four representative staining is shown. Scale bars, […]. (B) Graphs show SOCS3 and SOCS1 mRNA levels which were detected by real-time PCR analysis in cultured SCC (CAL27 and CAL33) and BCC (M77015) skin tumor lines left untreated or stimulated with IL-22 or IFN-γ for 3 h and normalized for β-actin mRNA expression levels. All data were obtained from three independent experiments. […] SOCS1 was detected by IP using a specific anti-SOCS1 Ab, whereas SOCS3 by WB with an anti-SOCS3 Ab. […] Densitometric intensity (D.I.) of SOCS1 or SOCS3/β-actin was calculated from three independent experiments and numerically expressed as D. I. Ratio. *p < 0.01; **p < 0.05. […] SOCS3 and phospho-Tyr STAT3 levels were detected by WB and normalized to β-actin levels. […]

Jak1 phosphorylation = experiment: IP/WB of Jak1 phosphorylation in healthy keratinocytes (IL-22); format: cell-based, human; conditions: IL-22 10 min, no peptide, n = 3
Description: Figure 5 KIR-ESS peptide inhibits IL-22-induced phosphorylation of STAT3 and Erk in healthy and SCC-derived keratinocytes (A) Protein extracts obtained from healthy keratinocytes (n = 3) pre-treated or not with 15 μM (left panel) or 75 μM (right panel), KIR, KIR-ESS and control (Ctrl1 or Ctrl2) peptides, and, then, stimulated or not with IL-22 for 20 min, were subjected to WB analysis to detect STAT3 (Tyr705), Erk and MEK phosphorylation. Filters were probed with anti-STAT3, -Erk and –MEK Abs (top). (B) Protein extracts obtained from healthy keratinocytes (n = 3) pre-treated or not with 75 μM KIR-ESS and control (Ctrl1) peptides, and, then, stimulated or not with IL-22 for 10 min, were subjected to immunoprecipitation for IL-22R1 and Jak1, and then analysed by WB to detect phosphorylated and unphosphorylated forms of the proteins. (C) Unphosphorylated and phosphorylated forms of STAT1 (Tyr701) and STAT3 (Tyr705) were monitored in keratinocytes treated with IFN-γ for 15 min by WB analysis (bottom). In all experimental groups, filters were stripped and re-probed with β-actin Ab. (D) Protein extracts were obtained from CAL27 (left panel) or CAL33 (right panel) lines treated or not with 75 μM peptides in presence of IL-22 or IFN-γ. WB was performed to detect basal and phosphorylated STAT1, STAT3 and Erk. […]

B1: IL-22: cytokine stimulus, R&D Systems (protein, UniProt Q9GZX6 34-179, looked up)
Interleukin-22: APISSHCRLDKSNFQQPYITNRTFMLAKEASLADNNTDVRLIGEKLFHGVSMSERCYLMKQVLNFTLEEVLFPQSDRFQPYMQEVVPFLARLSNRLSTCHIEGDDLHIQRNVQKLKDTVKKLGESGEIKAIGELDLLFMSLRNACI
Tyk2 phosphorylation induced (Tyk2 phosphorylation): induced molecular cascade implicating phosphorylation of IL-22R1, Tyk2 and Jak1
phospho-STAT3 levels [1]: higher compared to healthy cells, and showed a long-lasting activation
Jak1 phosphorylation induced (Jak1 phosphorylation): induced molecular cascade implicating phosphorylation of IL-22R1, Tyk2 and Jak1
